Source: patent US20060110789

What was measured:
[1] = target: T1, M3+TE (module 3 of DEBS with its own N-terminal linker, fused to thioesterase), Q03132
T1 chain: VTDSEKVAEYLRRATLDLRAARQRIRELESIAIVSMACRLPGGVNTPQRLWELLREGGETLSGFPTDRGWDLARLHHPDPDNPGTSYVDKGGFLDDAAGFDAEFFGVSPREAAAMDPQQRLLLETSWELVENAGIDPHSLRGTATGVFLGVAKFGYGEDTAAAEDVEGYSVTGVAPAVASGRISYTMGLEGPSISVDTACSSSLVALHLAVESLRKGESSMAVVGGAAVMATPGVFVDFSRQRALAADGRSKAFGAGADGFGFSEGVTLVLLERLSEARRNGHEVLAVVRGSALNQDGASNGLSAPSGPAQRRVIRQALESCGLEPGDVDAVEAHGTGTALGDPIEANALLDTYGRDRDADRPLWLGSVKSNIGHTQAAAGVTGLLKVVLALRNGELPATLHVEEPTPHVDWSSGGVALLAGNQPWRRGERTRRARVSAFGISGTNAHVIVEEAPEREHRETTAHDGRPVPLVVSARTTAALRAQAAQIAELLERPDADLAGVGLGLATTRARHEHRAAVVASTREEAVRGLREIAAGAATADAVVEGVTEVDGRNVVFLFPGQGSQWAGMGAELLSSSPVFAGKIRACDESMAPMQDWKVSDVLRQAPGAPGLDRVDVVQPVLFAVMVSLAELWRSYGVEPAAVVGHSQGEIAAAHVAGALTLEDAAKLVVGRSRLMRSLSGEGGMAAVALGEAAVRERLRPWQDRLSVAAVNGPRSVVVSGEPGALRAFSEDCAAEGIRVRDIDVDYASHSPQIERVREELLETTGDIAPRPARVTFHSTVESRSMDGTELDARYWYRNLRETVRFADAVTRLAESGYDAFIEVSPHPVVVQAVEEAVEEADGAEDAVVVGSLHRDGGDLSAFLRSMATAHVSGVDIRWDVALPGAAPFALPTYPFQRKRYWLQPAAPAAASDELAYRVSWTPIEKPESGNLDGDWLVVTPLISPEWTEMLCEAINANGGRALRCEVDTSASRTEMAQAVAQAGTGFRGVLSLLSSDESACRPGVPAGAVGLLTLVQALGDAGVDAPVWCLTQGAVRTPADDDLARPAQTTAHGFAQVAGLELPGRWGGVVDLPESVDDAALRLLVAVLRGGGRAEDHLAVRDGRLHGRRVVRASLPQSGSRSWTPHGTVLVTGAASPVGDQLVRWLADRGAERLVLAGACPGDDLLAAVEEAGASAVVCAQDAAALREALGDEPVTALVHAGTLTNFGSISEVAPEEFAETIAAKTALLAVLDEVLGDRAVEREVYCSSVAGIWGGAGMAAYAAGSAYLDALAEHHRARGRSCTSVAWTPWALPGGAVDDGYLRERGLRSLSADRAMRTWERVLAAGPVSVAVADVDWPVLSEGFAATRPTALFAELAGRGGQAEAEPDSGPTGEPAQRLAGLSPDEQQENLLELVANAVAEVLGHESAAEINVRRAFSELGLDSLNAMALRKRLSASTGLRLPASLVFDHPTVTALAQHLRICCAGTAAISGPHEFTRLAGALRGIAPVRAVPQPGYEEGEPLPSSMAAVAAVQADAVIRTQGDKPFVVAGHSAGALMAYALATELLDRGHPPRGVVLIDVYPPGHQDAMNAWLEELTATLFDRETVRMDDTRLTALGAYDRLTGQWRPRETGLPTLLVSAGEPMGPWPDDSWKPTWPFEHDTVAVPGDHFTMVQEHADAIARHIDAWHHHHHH

[2] = target: T2, (5)M3+TE (module 3 of DEBS with the N-terminal linker of module 5, fused to thioesterase), Q03132
T2 chain: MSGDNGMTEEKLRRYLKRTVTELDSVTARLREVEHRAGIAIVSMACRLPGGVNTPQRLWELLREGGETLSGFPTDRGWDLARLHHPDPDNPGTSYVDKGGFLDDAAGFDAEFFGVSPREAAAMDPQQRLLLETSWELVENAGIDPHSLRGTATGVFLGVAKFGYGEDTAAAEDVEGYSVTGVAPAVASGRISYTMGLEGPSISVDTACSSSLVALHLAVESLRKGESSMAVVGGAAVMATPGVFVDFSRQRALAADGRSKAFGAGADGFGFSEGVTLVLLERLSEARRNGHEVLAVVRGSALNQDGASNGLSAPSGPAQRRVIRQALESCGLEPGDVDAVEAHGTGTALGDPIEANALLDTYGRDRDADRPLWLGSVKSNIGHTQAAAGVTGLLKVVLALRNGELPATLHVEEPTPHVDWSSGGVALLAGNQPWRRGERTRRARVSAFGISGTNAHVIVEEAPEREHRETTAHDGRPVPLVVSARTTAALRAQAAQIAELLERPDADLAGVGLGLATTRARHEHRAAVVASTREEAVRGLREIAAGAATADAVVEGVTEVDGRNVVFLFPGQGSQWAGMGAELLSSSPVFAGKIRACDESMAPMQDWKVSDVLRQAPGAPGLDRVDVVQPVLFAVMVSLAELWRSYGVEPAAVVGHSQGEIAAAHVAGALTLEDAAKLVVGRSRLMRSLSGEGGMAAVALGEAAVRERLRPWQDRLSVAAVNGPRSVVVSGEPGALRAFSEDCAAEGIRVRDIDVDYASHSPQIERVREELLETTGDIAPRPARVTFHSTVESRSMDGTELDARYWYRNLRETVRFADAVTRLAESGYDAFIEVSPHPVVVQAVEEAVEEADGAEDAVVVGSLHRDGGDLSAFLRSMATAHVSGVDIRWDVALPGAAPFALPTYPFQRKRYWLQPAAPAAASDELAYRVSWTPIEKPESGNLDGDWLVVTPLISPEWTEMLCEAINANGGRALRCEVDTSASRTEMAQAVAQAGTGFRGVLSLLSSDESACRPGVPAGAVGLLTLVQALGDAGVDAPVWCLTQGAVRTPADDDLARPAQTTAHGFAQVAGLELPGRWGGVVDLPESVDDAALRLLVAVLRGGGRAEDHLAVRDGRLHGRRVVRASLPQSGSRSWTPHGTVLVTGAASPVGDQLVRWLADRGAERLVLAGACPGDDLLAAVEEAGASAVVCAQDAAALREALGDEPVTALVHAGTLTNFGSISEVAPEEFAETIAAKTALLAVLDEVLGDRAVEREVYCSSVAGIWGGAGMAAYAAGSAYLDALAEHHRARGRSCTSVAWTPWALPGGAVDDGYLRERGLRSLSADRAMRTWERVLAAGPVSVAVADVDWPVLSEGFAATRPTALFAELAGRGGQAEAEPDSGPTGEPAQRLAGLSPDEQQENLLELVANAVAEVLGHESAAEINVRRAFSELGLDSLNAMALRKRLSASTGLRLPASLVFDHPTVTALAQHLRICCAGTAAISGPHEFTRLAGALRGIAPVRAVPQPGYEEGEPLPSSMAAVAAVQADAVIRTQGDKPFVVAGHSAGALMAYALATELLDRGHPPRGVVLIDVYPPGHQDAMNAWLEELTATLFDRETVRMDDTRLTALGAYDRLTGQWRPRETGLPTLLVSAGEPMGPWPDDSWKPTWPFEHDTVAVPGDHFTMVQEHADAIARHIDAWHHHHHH

B1: M2(4) (module 2 of DEBS with the C-terminal linker of module 4) (protein)
chain: MSGDNGMTEEKLRRYLKRTVTELDSVTARLREVEHRAGIAIVGMACRLPGEVDSPERLWELITSGRDSAAEVPDDRGWVPDELMASDAAGTRAHGNFMAGAGDFDAAFFGISPREALAMDPQQRQALETTWEALESAGIPPETLRGSDTGVFVGMSHQGYATGRPRPEDGVDGYLLTGNTASVASGRIAYVLGLEGPALTVDTACSSSLVALHTACGSLRDGDCGLAVAGGVSVMAGPEVFTEFSRQGALSPDGRCKPFSDEADGFGLGEGSAFVVLQRLSDARREGRRVLGVVAGSAVNQDGASNGLSAPSGVAQQRVIRRAWARAGITGADVAVVEAHGTGTRLGDPVEASALLATYGKSRGSSGPVLLGSVKSNIGHAQAAAGVAGVIKVLLGLERGVVPPMLCRGERSGLIDWSSGEIELADGVREWSPAADGVRRAGVSAFGVSGTNAHVIIAEPPEPEPVPQPRRMLPATGVVPVVLSARTGAALRAQAGRLADHLAAHPGIAPADVSWTMARARQHFEERAAVLAADTAEAVHRLRAVADGAVVPGVVTGSASDGGSVFVFPGQGAQWEGMARELLPVPVFAESIAECDAVLSEVAGFSVSEVLEPRPDAPSLERVDVVQPVLFAVMVSLARLWRACGAVPSAVIGHSQGEIAAAVVAGALSLEDGMRVVARRSRAVRAVAGRGSMLSVRGGRSDVEKLLADDSWTGRLEVAAVNGPDAVVVAGDAQAAREFLEYCEGVGIRARAIPVDYASHTAHVEPVRDELVQALAGITPRRAEVPFFSTLTGDFLDGTELDAGYWYRNLRHPVEFHSAVQALTDQGYATFIEVSPHPVLASSVQETLDDAESDAAVLGTLERDAGDADRFLTALADAHTRGVAVDWEAVLGRAGLVDLPGYPFQGKRFWLLPDRTTPRDELDGWFYRVDWTEVPRSEPAALRGRWLVVVPEGHEEDGWTVEVRSALAEAGAEPEVTRGVGGLVGDCAGVVSLLALEGDGAVQTLVLVRELDAEGIDAPLWTVTFGAVDAGSPVARPDQAKLWGLGQVASLERGPRWTGLVDLPHMPDPELRGRLTAVLAGSEDQVAVRADAVRARRLSPAHVTATSEYAVPGGTILVTGGTAGLGAEVARWLAGRGAEHLALVSRRGPDTEGVGDLTAELTRLGARVSVHACDVSSREPVRELVHGLIEQGDVVRGVVHAAGLPQQVAINDMDEAAFDEVVAAKAGGAVHLDELCSDAELFLLFSSGAGVWGSARQGAYAAGNAFLDAFARHRRGRGLPATSVAWGLWAAGGMTGDEEAVSFLRERGVRAMPVPRALAALDRVLASGETAVVVTDVDWPAFAESYTAARPRPLLDRIVTTAPSERAGEPETESLRDRLAGLPRAERTAELVRLVRTSTATVLGHDDPKAVRATTPFKELGFDSLAAVRLRNLLNAATGLRLPSTLVFDHPNASAVAGFLDFAASPAVDIGDRLDELEKALEALSAEDGHDDVGQRLESLLRRWNSRRADAPSTSAISEDASDDELFSMLDQRFGGGEDL
- highest rate constant of tetraketide lactone 2 formation (mismatched linkers) [1]: in the range of 0.02-0.03 min^-1
- KM, fold increase against the natural linker pair (M2 with M3+TE) [2]: the increase in KM value upon swapping in the alternate linker pair is a more modest 2-fold
- kcat of tetraketide lactone 2 synthesis [2]: kcat of 0.74±0.06 min^-1
